Source: US12649778
Where a chain is given by its changes, count along the chain named. In names and notes the source's numbering stands. Several values for one entry are separate records, joined by “and”; a condition that tells them apart may be missing. Identical values can stand only once.

B1: Antibody 74D3-1 (antibody, V domains shown)
VH: QSVEESGGRLVTPGTPLTLTCTVSGIDLSNNAMGWVRQAPGEGLEWIGTIYASGNTYYASWAKGRFAISKTSTTVDLKMTSLTAADTATYFCARLFNIWGPGTLVTVSS
VL: ADIVLTQSPASVSSAVGGTVTINCQASQSVYDNKNLSWFQQKPGQPPKQLIYAASTLASGVPSRFKGSGSGTQFTLTISGMQCDDAATYYCGGRDSGNIYDFGGGTEVVVK
B2: 65D3 chimeric Fab, NNK library L18 mutant L to N (VL L55N) (Fab, V domains shown)
VH: QSLEESGGRLVTPGGSLTLTCTVSGFSLSTHDISWVRQAPGKGLEWIGVIARRGSTYYASWAKGRFTISKTSTTVDLKITSPTIEDTATYFCAREEFDFWGQGTLVTVSS
VL: AVLTQTASPVSAAVGGTVTISCQSSQSVYNNKELSWFQQKPGQPPKLLISYASTNASGVPSRFKGSGSGTQFTLTISDLECDDAATYYCLGGYASTIDMWAFGGGTEVVVK
B3: 65D3 chimeric Fab, NNK library L20 mutant S to H (VL S57H) (Fab, V domains shown)
VH: B2 VH
VL: B2 VL with N55L, S57H
B4: 65D3 chimeric Fab, NNK library L2 mutant S to M (VL S24M) (Fab, V domains shown)
VH: B2 VH
VL: B2 VL with S24M, N55L
B5: 65D3 chimeric Fab, NNK library H25 mutant K to R (VH K63R) (Fab, V domains shown)
VH: B2 VH with K63R
VL: B2 VL with N55L
B6: 65D3 chimeric Fab, NNK library L2 mutant S to G (VL S24G) (Fab, V domains shown)
VH: B2 VH
VL: B2 VL with S24G, N55L
B7: 65D3 chimeric Fab, NNK library L2 mutant S to T (VL S24T) (Fab, V domains shown)
VH: B2 VH
VL: B2 VL with S24T, N55L

Columns and labels:
[1] = molecular target: Peptide 2004 (…) (Mycobacterium tuberculosis)
[2] = molecular target: Peptide 1593 (…) (Mycobacterium tuberculosis); test: ELISA, NNK clone supernatant on coated peptide
[3] = molecular target: Peptide 1593 (…) (Mycobacterium tuberculosis); test: ELISA, NNK clone supernatant on coated peptide (22 hits)

Binder | rank by relative ELISA signal across the dilution series (1 = highest) [1] | OD450 nm [2] | ratio (OD450 to WT OD450) [2] | OD450 nm [3] [OD450] | ratio (OD450 to WT OD450) [3]
B1 | 9 | – | – | – | –
B2 | – | 0.937 OD450 | 1.26 fold of WT | 0.937 | 1.26 fold of WT
B3 | – | 0.596 OD450 | 1.25 fold of WT | 0.596 | 1.25 fold of WT
B4 | – | 1.15 OD450 and 1.09 OD450 | 1.38 fold of WT and 1.31 fold of WT | 1.09 | 1.31 fold of WT
B5 | – | 0.872 OD450 | 1.4 fold of WT | 0.872 | 1.4 fold of WT
B6 | – | 1.02 OD450 and 1.11 OD450 | 1.23 fold of WT and 1.33 fold of WT | 1.11 | 1.33 fold of WT
B7 | – | 1.01 OD450 and 1.07 OD450 | 1.21 fold of WT and 1.29 fold of WT | 1.07 | 1.29 fold of WT
